Test results from US20230363418A1, “COMPOSITION FOR PREVENTING OR TREATING NEUROPSYCHOLOGIC DISEASE, COMPRISING MANF” (CEFO CO., LTD., priority 2020, published 2023).

Tests used:
Type in all cases: cell-based, rat
[1] = system: hippocampal-derived neural stem cells; assay: Immunoblotting of differentiation markers (NeuN, GAD65/67, vGAT) in differentiating neural progenitor cells
Experimental: To determine the optimal dose of MANF to promote the expression of differentiation markers in neural progenitor cells, immunoblotting experiments were performed using NeuN antibody that labels the nuclei of mature neurons, glutamic acid decarboxylase (GAD65/67) and vesicular […] (vGAT) that label GABAergic nerve cells.
(§1) Specifically, hippocampal-derived neural stem cells were isolated from the brain of E16 rat embryos. Hippocampal ridges were minced from the embryonic forebrains of E16 rats using sterile fine tweezers under a dissecting microscope. The tissues were collected, mechanically separated using a pipette in Ca^2+/Mg^2+-freeHBSS (Invitrogen) solution, and planted at 19,000 cells/cm^2 in 35 mm culture dishes precoated with 15 µg/ml poly-L-ornithine and 1 µg/ml fibronectin (Sigma). The cells were cultured under the condition of 5% CO2 for 3 days using a serum-free N2 medium (medium for proliferation) supplemented with 10 ng/mL basic fibroblast growth factor(bFGF, Invitrogen). Thereafter, the cells were removed using 0.05% trypsin/EDTA (ethylene-diamine-tetraacetic acid), and neural progenitor cells were planted on a 12 mm glass coverglass (Belco) for immunostaining and on a 100 mm dish for immunoblotting and cultured in N2 medium for proliferation containing bFGF for 1 day. Thereafter, in the proliferation condition, the medium continuously containing bFGF was treated with MANF at the indicated concentration and cultured for 2-3 days; and in the differentiation condition, MANF was added to the medium for differentiation not containing bFGF, which was cultured for 3-7 days. In the control group (vehicle), physiological saline was added in the same volume instead of MANF.
After 3-7 days of differentiation of the cultured neural stem cells, the medium was removed and washed once with PBS (Phosphate-buffered saline). Then, all the cells were lysed using a lysis buffer to which a protease inhibitor was added. The lysate was loaded in a 10% gel in the same volume, then transferred to a PVDF (Polyvinylidene Fluoride) membrane and blocked with 2% BSA in TBST or 5% skim milk in TBST at room temperature for 1 hour. As primary antibodies, rb-GAD65/67 (1:1000), mo-NeuN (1:1000), mo-Vgat (1:700), and mo-actin (1:2000) were used, and the primary antibodies were diluted with 2% BSA in TBST, reacted at 4° C. for 16 hours, and then washed with […]. As secondary antibodies, mo-HRP (1:5000) and rb-HRP (1:5000) were used, and the secondary antibodies were diluted in 2% skim milk in TBST or 2% BSA in TBST, reacted for 1 hour, and then developed on films. As control antibodies, mo-tubulin (Millipore, 05-661, 1:2000) and mo-actin (Santa cruz, SC-47778, 1:2000) were used.

[2] = system: primary cultured neural progenitor cells; assay: Immunofluorescence staining of Ki67, Nestin, TuJ1 and NeuN in primary cultured neural progenitor cells; settings: MANF 30 ng/ml, compared to the control group
Experimental: To investigate whether or not MANF promotes proliferation of neural progenitor cells, the primary cultured neural progenitor cells are treated with MANF, and then proliferating cells were fluorescently stained with Ki67 antibody, neural progenitor cells with Nestin antibody, immature nerve cells with TuJ1, and mature neural cells with NeuN antibody.
Specifically, the neural progenitor cells were cultured in the same manner as in Example 1, and after removing all the mediums, they were washed once with PBS. After being fixed for 15 minutes with 4% PFA (paraformaldehyde) in PBS, they were washed twice with PBS again. After washing the cover slip to which the cells were attached with PBST, 0.5% Triton X-100-PBST was added thereto and reacted for 10 minutes. Again, blocking was performed with 2% BSA in PBST or 5% normal serum (Normal donkey serum: Jackson lab, 017-000-121, Normal horse serum: Sigma, H0146); and as primary antibodies, rb-Ki67(Abcam, AB15580, 1:500), mo-NeuN(Millipore, MAB377B, 1:500), mo-Tuj1(Sigma, T8660, 1:3000), mo-Flag(Sigma, F1804, 1:500), and mo-Nestin(Millipore, MAB353, 1:200) were added to 2% BSA in PBS and reacted overnight at 4° C. The next day, they were washed with PBST, and then, as secondary antibodies, mo-Alexa 488(Invitrogen, A21202, 1:700), mo-Cy3(Jackson lab, 715-165-151, 1:500), and rb-Alexa 488(Jackson lab, 711-546-152, 1:700) were added to PBST and reacted at room temperature for 1 hour. Cell nuclei were stained with DAPI (1 µg/mL, Sigma), mounted on slides, scanned with a confocal laser microscope, and photographed. Heo SR et al.(2009) and Han AM t al.(2012) were referred to in the above method.
In the case of cell count confirmation and data analysis, the number of cell nuclei labeled with DAPI and the number of cells stained with each differentiation marker were counted, respectively, and the number of each differentiation marker was expressed as a percentage of the number of cell nuclei. In this case, the number of cells that matched exactly in shape and location and had the shape of a nerve cell was counted. For example, in NeuN cell count measurement, the number of cells with a round shape in a nucleus and overlapping staining with DAPI was counted, and nonspecific signals appearing at the edge of the slide were not included. In data analysis, the control group and the experimental group were compared through one-way analysis of variance (ANOVA). The statistical significance of the data was set as p<0.05.

[3] = system: primary neural progenitor cells; assay: GAD-GFP reporter plasmid assay of GABAergic nerve cell differentiation; settings: MANF 30 ng/ml
Excerpt: In order to efficiently investigate the differentiation of the primary neural progenitor cells into GABAergic nerve cells by MANF, a plasmid (GAD-GFP) capable of easily and effectively observing and detecting the differentiation into the GABAergic nerve cells with the naked eye by recombining green fluorescent protein (GFP), a fluorescent protein, into the promoter region of the human GAD gene was used. When the activity of the promoter is increased, the differentiation into GABAergic nerve cells is promoted, and whether or not the activity of the promoter is increased can be monitored by the expression level of a reporter gene operably linked thereto. Accordingly, it can be seen that the differentiation into GABAergic nerve cells is promoted when the expression level of the reporter gene is increased. In addition, it is possible to easily observe the differentiation of GABAergic nerve cells using a transcription factor that binds to the promoter.
Specifically, on day 3 after culturing the primary neural progenitor cells, the cells were separated from the dish with 0.05% trypsin and subcultured, and then all groups were transfected with GAD-GFP DNA. The cells were seeded in a 24-well plate and cultured in N2 medium containing 10 ng/mL bFGF for 24 hours. N2 medium for differentiation without bFGF was treated with MANF at a concentration of 30 ng/ml, and after 3 and 5 days, it was fixed and stained.

[4] = system: proliferating neural progenitor cells; assay: Immunoblotting of Sox2 and DCX in proliferating neural progenitor cells; settings: MANF 20 ng/ml, proliferation condition
Experimental: as §1

[5] = MANF at 30 ng (tested 10-50 ng/ml), differentiation condition, vs vehicle

B1: MANF: one of 16 or more growth factors secreted into nerve stem cells by cerebrovascular cells; amino acid sequence of SEQ ID NO: 1 (protein)
chain: MRRMWATQGLAVALALSVLPGSRALRPGDCEVCISYLGRFYQDLKDRDVTFSPATIENELIKFCREARGKENRLCYYIGATDDAATKIINEVSKPLAHHIPVEKICEKLKKKDSQICELKYDKQIDLSTVDLKKLRVKELKKILDDWGETCKGCAEKSDYIRKINELMPKYAPKAASARTDL
modifications: MANF
For B1, the “NeuN protein increase (immunoblotting)” value [1, 5] was 1.6 fold, the “amount of GAD65/67 protein increase (immunoblotting)” value [1, 5] was “about 2.5 fold” and the “amount of vGAT protein increase (immunoblotting)” value [1, 5] was “about 2.5 fold”. For the same molecule, the “optimal dose of MANF (NeuN, GAD65/67 and vGAT protein all increased the most)” value ([1]; tested 10-50 ng/ml) was 30 ng/mL, the Ki67-stained proliferating cells [2] was “significantly increased” and the “immature neural cells (TuJ1)” value [2] was “also increased, but there was no statistical significance”. For the same molecule, the “mature neural cells (NeuN)” value [2] was “also increased, but there was no statistical significance”, the “nestin-stained neural progenitor cells” value [2] was “significantly increased” and the “number of NeuN-stained cells in MANF-treated group vs Con group” value ([3]; 3 and 5 days) was “no greater increase”. The “GFP-positive cells (GAD promoter-GFP, GABAergic differentiation)” value ([3]; 3 and 5 days, vs Con group) was “increased compared to the Con group”, the “number of NeuN-stained cells” value ([3]; after 3 days of differentiation) was 10% and the “number of NeuN-stained cells” value ([3]; after 5 days of differentiation) was 50%. The DCX immunoblot [4] was “significantly increased” and the Sox2 immunoblot [4] was “significantly increased”.
